The record followed here is patent US20200317768A1 (published 2020).

The target of test [1] is T1, Cynomolgus monkey latent myostatin (cynomolgus monkey, UniProt Q95J86 25-266; Q95J86 267-375).
T1 construct: Latent form = complex of two propeptides and the mature dimer; also called Cyno latent myostatin
T1 sequence 1: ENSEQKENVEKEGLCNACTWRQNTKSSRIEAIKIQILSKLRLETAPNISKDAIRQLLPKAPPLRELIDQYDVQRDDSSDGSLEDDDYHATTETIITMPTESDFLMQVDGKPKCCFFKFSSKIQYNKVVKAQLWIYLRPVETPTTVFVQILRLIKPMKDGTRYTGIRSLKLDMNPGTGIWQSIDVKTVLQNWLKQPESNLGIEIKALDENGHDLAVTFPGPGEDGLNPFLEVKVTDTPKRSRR
T1 sequence 2: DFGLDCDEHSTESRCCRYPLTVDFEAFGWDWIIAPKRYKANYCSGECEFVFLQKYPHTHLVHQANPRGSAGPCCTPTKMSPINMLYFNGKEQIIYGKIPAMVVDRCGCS
Description: SPR 37C; KD pH 5.8 / KD pH 7.4. On the procedure: (§1) ProA/G (Pierce) was immobilized onto all flow cells of a CM4 chip using an amine coupling kit (GE Healthcare). All antibodies and analytes were prepared in ACES pH7.4 or pH5.8 buffer containing 20 mM ACES, 150 mM NaCl, 1.2 mM CaCl₂, 0.05% TWEEN®) 20, 0.005% NaN₃. […] Human, cyno, and mouse latent myostatin was injected at 3.125 to 50 nM prepared by two-fold serial dilution, followed by dissociation. The sensor surface was regenerated each cycle with 10 mM Glycine HCl pH1.5. Binding affinity was determined by processing and fitting the data to a 1:1 binding model using BIACORE® T200 Evaluation software, version 2.0 (GE Healthcare).

In test [2] the target is T1, Cynomolgus monkey latent myostatin. The test is described as follows: SPR (BIACORE T200) 37C, pH 5.8, antibody captured by ProA/G. Here is the method: as §1
The target in test [3] is T2, Human latent myostatin (human, UniProt O14793 25-266; O14793 267-375).
T2 construct: also called human myostatin latent form
T2 sequence 1: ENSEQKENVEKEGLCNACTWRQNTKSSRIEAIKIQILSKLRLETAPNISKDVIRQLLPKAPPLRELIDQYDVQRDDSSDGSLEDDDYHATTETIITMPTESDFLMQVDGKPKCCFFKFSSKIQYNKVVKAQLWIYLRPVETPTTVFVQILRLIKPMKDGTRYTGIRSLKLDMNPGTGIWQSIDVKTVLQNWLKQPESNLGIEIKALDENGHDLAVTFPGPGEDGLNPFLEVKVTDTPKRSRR
T2 sequence 2: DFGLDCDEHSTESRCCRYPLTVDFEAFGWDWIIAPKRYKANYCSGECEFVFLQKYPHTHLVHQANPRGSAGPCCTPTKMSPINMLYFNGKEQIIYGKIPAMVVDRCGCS
Description: SPR (BIACORE T200) 37C, pH 7.4, antibody captured by ProA/G. Here is the method: as §1

Test [4] deals with T1, Cynomolgus monkey latent myostatin. The test is described as above. Here is the method: as §1
A further test deals with T3, Mouse latent myostatin (mouse, UniProt O08689 26-267; O08689 268-376).
T3 construct: Latent form = complex of two propeptides and the mature dimer
T3 sequence 1: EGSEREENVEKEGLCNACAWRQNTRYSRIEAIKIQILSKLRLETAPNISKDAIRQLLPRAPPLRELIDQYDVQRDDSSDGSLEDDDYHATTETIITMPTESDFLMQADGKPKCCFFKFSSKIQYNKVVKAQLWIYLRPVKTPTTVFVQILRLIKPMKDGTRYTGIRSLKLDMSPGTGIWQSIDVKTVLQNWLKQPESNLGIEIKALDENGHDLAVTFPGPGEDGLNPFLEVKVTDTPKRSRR
T3 sequence 2: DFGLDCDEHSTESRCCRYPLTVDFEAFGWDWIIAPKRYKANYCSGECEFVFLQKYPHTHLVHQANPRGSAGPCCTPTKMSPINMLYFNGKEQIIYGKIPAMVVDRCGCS
The test is described as above. Here is the method:
as §1

Test [5] deals with T2, Human latent myostatin. The test is described as follows: SPR 37C; KD pH 5.8 / KD pH 7.4. Here is the method: as §1
Test [6] addresses T2, Human latent myostatin. The test is described as follows: SPR (BIACORE T200) 37C, pH 5.8, antibody captured by ProA/G. Here is the method:
as §1

B1: MS_M103205H1186-SG1/M103202L889-SK1 (antibody, human IgG1, kappa, V domains shown)
VH: QVTLKESGPVLVKPTETLTLTCTVSGIDLSHDDISWVRQAPGKGLEWVGIISYAGKKYYASWAKGRLTISKDTSKNQVVLTMTNMDPVDTATYYCARGVPAYSHGGDLWGQGTLVTVSS
VL: DIVMTQSPATLSLSPGERATLSCTSSQSVYHANWLSWFQQKPGQPPKLLIYWASTLAYGVPSRFSGSGSGTDFTLTISSLQPEDAATYYCAGGYGGGRYAFGQGTKVEIKR
notes: also called MS1032LO18-SG1
As for B1, the “ratio of KD at pH 5.8/pH 7.4” value in test [1] was determined as 229. Further, the Kd (as a rule, a measure of binding affinity in units of concentration) in test [2] is 80.9 nM; with Human latent myostatin [3], 0.329 nM; in test [4], 0.354 nM; in the test with Mouse latent myostatin, 0.272 nM.

B2: MS_M103245H795-SG1/M103202L1045-SK1 (antibody, human IgG1, kappa, V domains shown)
VH: QVTLKESGPVLVKPTETLTLTCKVSGIDLSHDDISWVRQAPGKGLEWVSIISYAGSTYYASWAKGRLTISKDTSKNQVVLTMTNMDPVDTATYYCARGVPAYSHGGDLWGQGTLVTVSS
VL: DIVMTQSPATLSLSPGERATLSCTTSQSVYHENWLSWFQQKPGQPPKLLIYWASTLAYGVPSRFSGSGSGTDFTLTISSLQPEDAATYYCAGGYGGGRYAFGQGTKVEIKR
notes: also called MS1032LO21-SG1
Take B2: the “ratio of KD at pH 5.8/pH 7.4” value was 204 with Human latent myostatin [5] and 100 in test [1]. The Kd with Human latent myostatin [6] came to 52.3 nM; in test [2], 31 nM; in the test with Human latent myostatin [3], 0.257 nM; in test [4] it was 0.309 nM.
